From patent publication US20170145112A1 (Genentech, published 2017)

Key:
[1] = target: T1, Human complement Factor D, mature (human, UniProt P00746 27-253); experiment: SPR, Fab captured by anti-huFab, human Factor D injected
T1 construct: In the TR-FRET assay the factor D was bought from Complement Technology; In the hemolysis assay it was the factor D of C1q-depleted human serum; also called human Factor D; hFD
Protocol: (§1) Kinetics and binding constant KD for Factor D binding to immobilized hu20D12 versions was determined by surface plasmon resonance (SPR) measurements on a Biacore®T200 instrument. […] After subtraction of the sensorgram observed for injection of running buffer, data were analyzed according to a 1:1 model using BiaEval software v4.1 (GE Healthcare) to extract the kinetics and affinity constants.

[2] = target: T1, Human complement Factor D, mature; experiment: cell-based or functional assay
[3] = target: T1, Human complement Factor D, mature; experiment: SPR, Biacore T200, IgG captured by anti-Fc, human factor D injected
[4] = target: T1, Human complement Factor D, mature; experiment: cell-based or functional assay; remark: listed apart in the source
[5] = target: T1, Human complement Factor D, mature; experiment: cell-based or functional assay; remark: listed apart in the source
Target sequence in this assay (P00746 27-253): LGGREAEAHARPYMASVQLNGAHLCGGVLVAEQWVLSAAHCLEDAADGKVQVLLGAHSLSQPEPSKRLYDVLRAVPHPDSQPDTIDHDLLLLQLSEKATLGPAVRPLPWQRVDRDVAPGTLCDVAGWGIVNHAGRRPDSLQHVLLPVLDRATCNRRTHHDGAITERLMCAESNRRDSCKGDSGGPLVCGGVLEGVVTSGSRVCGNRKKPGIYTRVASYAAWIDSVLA

[6] = target: T1, Human complement Factor D, mature; experiment: SPR, at the limit of detection
Target sequence in this assay (P00746 27-253): as above
Protocol: as §1

[7] = target: T1, Human complement Factor D, mature; experiment: SPR (Biacore T200): Fab captured with anti-huFab kit, human Factor D injected, 25 C, 1:1 model;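 also: sensorgrams were corrected by subtracting a blank injection of running buffer before fitting kinetic and affinity constants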
Protocol: as §1

[8] = target: T1, Human complement Factor D, mature; experiment: cell-based or functional assay; remark: listed apart in the source
[9] = target: T2, Cynomolgus monkey complement Factor D (cynomolgus monkey, UniProt P00746 26-253 (human entry)); experiment: SPR (Biacore T200), Fab format; cynomolgus Factor D (column 'KD (pM) cFD (cyno)')
T2 construct: also called cyfD; cFD
T2 chain: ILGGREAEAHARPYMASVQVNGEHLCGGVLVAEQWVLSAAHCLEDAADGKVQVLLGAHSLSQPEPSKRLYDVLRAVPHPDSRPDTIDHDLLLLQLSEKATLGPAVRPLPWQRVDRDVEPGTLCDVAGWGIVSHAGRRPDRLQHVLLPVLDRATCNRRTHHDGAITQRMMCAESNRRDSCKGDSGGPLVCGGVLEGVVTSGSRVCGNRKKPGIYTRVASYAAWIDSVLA

[10] = target: T1, Human complement Factor D, mature; experiment: cell-based or functional assay; remark: listed apart in the source
Target sequence in this assay (P00746 27-253): as the sequence (P00746 27-253) above

[11] = target: T1, Human complement Factor D, mature; experiment: cell-based or functional assay; remark: listed apart in the source
[12] = target: T1, Human complement Factor D, mature; experiment: SPR (refers to FIG. 11); hu20D12.v2.0
Protocol: as §1

| Binder | IC50, TR-FRET assay of Factor D (50 pM) cleavage of factor B [5] [pM] | Kd [6] [pM] | Kd [7] [pM] | koff [7] [s⁻¹] | kon [7] [M⁻¹ s⁻¹] | Kd [9] [pM] | other results |
| --- | --- | --- | --- | --- | --- | --- | --- |
| hu20D12.v1 Fab (Fab, V domains shown, Fab expressed in E. coli) VH: EVQLVQSGAEVKKPGASVKVSCKASGYTFTSYYMYWVRQAPGQGLEWIGEINPTNGGTNFNEKFKSRATLTVDTSTSTAYLELSSLRSEDTAVYYCAREGGFAYWGQGTLVTVSS VL: DIQMTQSPSSLSASVGDRVTITCKASQNVDTDVAWFQQKPGKAPKGLIYSASSRYSGVPSRFSGSGSGTDFTLTISSLQPEDFATYYCQQYNNYPLTFGQGTKVEIKR |  |  |  |  |  |  | Kd [1]: 33 pM; IC50 Hemolysis [2]: 2800 pM |
| hu20D12.v1 IgG (antibody, V domains shown, Expressed as full length IgG in CHO cells) VH: EVQLVQSGAEVKKPGASVKVSCKASGYTFTSYYMYWVRQAPGQGLEWIGEINPTNGGTNFNEKFKSRATLTVDTSTSTAYLELSSLRSEDTAVYYCAREGGFAYWGQGTLVTVSS VL: DIQMTQSPSSLSASVGDRVTITCKASQNVDTDVAWFQQKPGKAPKGLIYSASSRYSGVPSRFSGSGSGTDFTLTISSLQPEDFATYYCQQYNNYPLTFGQGTKVEIK |  |  |  |  |  |  | Kd [3]: 46 pM; koff [3]: 0.00067 s⁻¹; kon [3]: 1.5e+07 M⁻¹ s⁻¹; Hemolysis IC50 [4]: 4300 pM |
| hu20D12.v2.3.C+TP-Oct (Fab, V domains shown, C-terminal Cys (Cys-226, EU numbering) linked through maleimide to a 40K eight-armed PEG with tripentaerythritol (TP) core) VH: EVQLVQSGAEVKKPGASVKVSCKASGYTFTSYYMYWVRQAPGQGLEWIGEINPYSGDTNFNEKFKSRATLTVDTSTSTAYLELSSLRSEDTAVYYCAREGGFAYWGQGTLVTVSS VL: DIQMTQSPSSLSASVGDRVTITCKASQNVDTDVAWFQQKPGKAPKGLIRSASSRYSGVPSRFSGSGSGTDFTLTISSLQPEDFATYYCQQYNNYPLTFGQGTKVEIKR | 13 |  |  |  |  |  |  |
| hu20D12.v2.1.C+TP-Oct (Fab, V domains shown, C-terminal Cys (Cys-226, EU numbering) linked through maleimide to a 40K eight-armed PEG with tripentaerythritol (TP) core) VH: EVQLVQSGAEVKKPGASVKVSCKASGYTFTSYYMYWVRQAPGQGLEWIGEINPTSGGTNFNEKFKSRATLTVDTSTSTAYLELSSLRSEDTAVYYCAREGGFAYWGQGTLVTVSS VL: DIQMTQSPSSLSASVGDRVTITCKASQNVDTDVAWFQQKPGKAPKGLIRSASSRYSGVPSRFSGSGSGTDFTLTISSLQPEDFATYYCQQYNNYPLTFGQGTKVEIKR | 31 |  |  |  |  |  |  |
| hu20D12.v2.12 Fab (Fab, V domains shown) VH: EVQLVQSGAEVKKPGASVKVSCKASGYTFTSYYMYWVRQAPGQGLEWIGEINPYSGGTNFNEKFKSRATLTVDTSTSTAYLELSSLRSEDTAVYYCAREGGFAYWGQGTLVTVSS VL: DIQMTQSPSSLSASVGDRVTITCKASQNVDTDVAWFQQKPGKAPKGLIRSASSRYSGVPSRFSGSGSGTDFTLTISSLQPEDFATYYCQQYNNYPLTFGQGTKVEIKR |  | ~10 | < 10 | 0.00015 | 1.8e+07 |  |  |
| hu20D12.v2.14 Fab (Fab, V domains shown) VH: EVQLVQSGAEVKKPGASVKVSCKASGYTFTSYYMYWVRQAPGQGLEWIGEINPTSGETNFNEKFKSRATLTVDTSTSTAYLELSSLRSEDTAVYYCAREGGFAYWGQGTLVTVSS VL: DIQMTQSPSSLSASVGDRVTITCKASQNVDTDVAWFQQKPGKAPKGLIRSASSRYSGVPSRFSGSGSGTDFTLTISSLQPEDFATYYCQQYNNYPLTFGQGTKVEIKR |  | ~10 | < 10 | 8e-05 | 1.5e+07 | 50 | FRET IC50 (TR-FRET assay of Factor D-dependent factor B activation) [8]: 25 pM |
| hu20D12.v2.15 Fab (Fab, V domains shown) VH: EVQLVQSGAEVKKPGASVKVSCKASGYTFTSYYMYWVRQAPGQGLEWIGEINPYSGETNFNEKFKSRATLTVDTSTSTAYLELSSLRSEDTAVYYCAREGGFAYWGQGTLVTVSS VL: DIQMTQSPSSLSASVGDRVTITCKASQNVDTDVAWFQQKPGKAPKGLIRSASSRYSGVPSRFSGSGSGTDFTLTISSLQPEDFATYYCQQYNNYPLTFGQGTKVEIKR |  | ~10 | < 10 | 6e-05 | 1.9e+07 | 27 | FRET IC50 (TR-FRET assay of Factor D-dependent factor B activation) [8]: 24 pM |
| hu20D12.v2.3 Fab (Fab, V domains shown) VH: EVQLVQSGAEVKKPGASVKVSCKASGYTFTSYYMYWVRQAPGQGLEWIGEINPYSGDTNFNEKFKSRATLTVDTSTSTAYLELSSLRSEDTAVYYCAREGGFAYWGQGTLVTVSS VL: DIQMTQSPSSLSASVGDRVTITCKASQNVDTDVAWFQQKPGKAPKGLIRSASSRYSGVPSRFSGSGSGTDFTLTISSLQPEDFATYYCQQYNNYPLTFGQGTKVEIKR | 31 | ~10 | < 10 | 2.9e-05 | 1.2e+07 | 24 | FRET IC50 (TR-FRET assay of Factor D-dependent factor B activation), value 1 of 3 in the cell [8]: 25 pM; FRET IC50 (TR-FRET assay of Factor D-dependent factor B activation), value 2 of 3 in the cell [8]: 31 pM; FRET IC50 (TR-FRET assay of Factor D-dependent factor B activation), value 3 of 3 in the cell [8]: 31 pM; AVG IC50 (pM), TR-FRET assay of Factor D-dependent factor B activation [10]: 31.2 pM |
| hu20D12.v1.1 Fab (Fab, V domains shown, Fab expressed in E. coli; also called Hu20D12.v1.N54Q) VH: EVQLVQSGAEVKKPGASVKVSCKASGYTFTSYYMYWVRQAPGQGLEWIGEINPTQGGTNFNEKFKSRATLTVDTSTSTAYLELSSLRSEDTAVYYCAREGGFAYWGQGTLVTVSS VL: DIQMTQSPSSLSASVGDRVTITCKASQNVDTDVAWFQQKPGKAPKGLIYSASSRYSGVPSRFSGSGSGTDFTLTISSLQPEDFATYYCQQYNNYPLTFGQGTKVEIKR |  |  |  |  |  |  | Kd [1]: 45 pM; IC50 Hemolysis [2]: 6700 pM |
| hu20D12.v2.0 Fab (Fab, V domains shown, Fab expressed in E. coli; also called Hu20D12.v1.N54S; hu20D12.v1.N54S) VH: EVQLVQSGAEVKKPGASVKVSCKASGYTFTSYYMYWVRQAPGQGLEWIGEINPTSGGTNFNEKFKSRATLTVDTSTSTAYLELSSLRSEDTAVYYCAREGGFAYWGQGTLVTVSS VL: DIQMTQSPSSLSASVGDRVTITCKASQNVDTDVAWFQQKPGKAPKGLIYSASSRYSGVPSRFSGSGSGTDFTLTISSLQPEDFATYYCQQYNNYPLTFGQGTKVEIKR |  |  |  | 0.00055 | 1.4e+07 | 152 | Kd [1]: 40 pM; IC50 in the TR-FRET assay, fold against lampalizumab [11]: ~2 fold; Kd [12]: 39 pM; IC50 Hemolysis [2]: 4700 pM; FRET IC50 (TR-FRET assay of Factor D-dependent factor B activation), value 1 of 2 in the cell [8]: 51 pM; FRET IC50 (TR-FRET assay of Factor D-dependent factor B activation), value 2 of 2 in the cell [8]: 59 pM; AVG IC50 (pM), TR-FRET assay of Factor D-dependent factor B activation [10]: 59.2 pM |
| hu20D12.v2.13 Fab (Fab, V domains shown) VH: EVQLVQSGAEVKKPGASVKVSCKASGYTFTSYYMYWVRQAPGQGLEWIGEINPTSGGTNFNEKFKSRATLTVDTSTSTAYLELSSLRSEDTAVYYCAREGGFAYWGQGTLVTVSS VL: DIQMTQSPSSLSASVGDRVTITCKASQNVDTDVAWFQQKPGKAPKGLIRSASSRYSGVPSRFSGSGSGTDFTLTISSLQPEDFATYYCQQYENYPLTFGQGTKVEIKR |  | ~10 | < 10 | 0.00013 | 4.1e+07 |  |  |
| AFD.v14 Fab (Fab, V domains shown, Variant of lampalizumab; also called SIESD.N103S) VH: EVQLVQSGPELKKPGASVKVSCKASGYTFTNYGMNWVRQAPGQGLEWMGWINTYTGETTYAEDFKGRFVFSLDTSVSTAYLQISSLKAEDTAVYYCEREGGVSNWGQGTLVTVSS VL: DIQVTQSPSSLSASVGDRVTITCITSTSIESDMNWYQQKPGKVPKLLISGGNTLRPGVPSRFSGSGSGTDFTLTISSLQPEDVATYYCLQSDSLPYTFGQGTKVEIKR | 26 |  | 23.3 | 0.00021 | 9e+06 | 56 | FRET IC50 (TR-FRET assay of Factor D-dependent factor B activation), value 1 of 3 in the cell [8]: 25 pM; FRET IC50 (TR-FRET assay of Factor D-dependent factor B activation), value 2 of 3 in the cell [8]: 34 pM; FRET IC50 (TR-FRET assay of Factor D-dependent factor B activation), value 3 of 3 in the cell [8]: 26 pM; AVG IC50 (pM), TR-FRET assay of Factor D-dependent factor B activation [10]: 34 pM |
| murine 20D12 (mu20D12) IgG (antibody, V domains shown, IgG format, mouse antibody) VH: QVQLQQSGAELVKPGASVKLSCKASGYTFTSYYMYWVKERPGQGLEWIGEINPTNGGTNFNEKFKSKATLTVDTSSNTAYMQLSSLTSEDSAVYYCAREGGFAYWGQGTLVTVSA VL: DIVMTQSQKFMSTSVGDRVSVTCKASQNVDTDVAWFQQKPGQSPRGLIYSASSRYSGVPDRFTGSGSGTDFTLTISNVQSEDLAEYFCQQYNNYPLTFGSGTKVEIK |  |  |  |  |  |  | Kd [3]: 66 pM; koff [3]: 0.00039 s⁻¹; kon [3]: 5.9e+06 M⁻¹ s⁻¹; Hemolysis IC50 [4]: 4000 pM |
